Assays:
[1] = test system: PRLR expressing cells; assay: In vitro cell viability (cell kill) assay, several cell backgrounds; type: cell-based, human; details: PC3/hPRLR and MCF7/hPRLR cell lines
Description: (§1) PRLR-overexpressing cells, including HEK293, PC3, MCF7 and NCI-N87, were generated to assess the ability of anti-PRLR conjugated antibodies to reduce cell viability. For comparative purposes, PC3 and T47D cells with overexpressed ErbB2 were also generated, as well as an MCF7 cell line over-expressing both hPRLR and hErbB2. Briefly, Lipofectamine® 2000-mediated transfection methodology was utilized to generate HEK293 cells expressing human PRLR (HEK293/hPRLR) or human ErbB2 (HEK293/hErbB2). Lipofectamine LTX with Plus Reagent was used to generate PC3 cells expressing human PRLR (PC3/hPRLR) or human ErbB2 (PC3/hErbB2). Lentiviral-mediated transduction was utilized to generate MCF7 cells expressing human PRLR (MCF7/hPRLR), NCI-N87 cells expressing human PRLR (NCI-N87/hPRLR), T47D cells over-expressing human ErbB2 (T47D/hErbB2), and MCF7 cells expressing both human PRLR and human ErbB2 (MCF7/hPRLR/hErbB2). All lines were selected for at least two weeks in complete growth media plus appropriate selection reagents. Stably expressing populations were enriched for PRLR expression via FACS using the anti PRLR antibody Control I.
(§2) Next, the ability of anti-PRLR-DM1 antibody-drug conjugates (i.e., anti-PRLR antibodies conjugated to DM1 via a non-cleavable linker [SMCC]) to reduce cell viability was determined using in vitro cell based assays. Cells were seeded in PDL-coated 96 well plates at 1500 to 10000 cells per well in complete growth media and allowed to grow overnight. For cell viability curves, ADCs or free DM1 (as the methyl disulfide derivative DM1-SMe) were added to the cells at final concentrations ranging from 500 nM to 5 pM and incubated for 3 days. The 293, PC3 and T47D cells were incubated with CCK8 (Dojindo, Rockville, Md.) for the final 1-3 hours and the absorbance at 450 nm (OD450) was determined on a Flexstation3 (Molecular Devices, Sunnyvale, Calif.). MCF7 cells were treated with Hoechst 33342 nuclear stain while being fixed with 4% formaldehyde. Images were acquired on the ImageXpress micro XL (Molecular Devices, Sunnyvale, Calif.) and nuclear counts were determined via Columbus image analysis software (Perkin Elmer, Shelton, Conn.). Background OD450 values (PC3, 293, and T47D) or nuclear counts (MCF7) from digitonin (40 nM) treated cells was subtracted from all wells and viability was expressed as a percentage of the untreated controls. IC50 values were determined from a four-parameter logistic equation over a 10-point response curve (GraphPad Prism).

[2] = test system: HEK293 (293) cells; assay: In vitro cell viability (cell kill) assay, CCK8; type: cell-based, human; details: 293
Summary of the method: (§3)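 Three-day exposure to DM1-conjugated anti-PRLR antibodies or DM1-SMe, 500 nM down to 5 pM, in cells engineered to express human PRLR. Surviving cells are quantified by CCK8 absorbance or by imaged Hoechst nuclear counts, relative to untreated wells.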

[3] = test system: HEK293/hPRLR (293/hPRLR) cells; assay: In vitro cell viability (cell kill) assay, CCK8; type: cell-based, human
Summary of the method: as §3

[4] = test system: PC3 cells; assay: In vitro cell viability (cell kill) assay, CCK8; type: cell-based, human; details: Table 11, 3 days
Summary of the method: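 Viability of hPRLR-expressing 293, PC3 and MCF7 cells is measured after 3 days with non-cleavable-linker DM1 ADCs (final 500 nM–5 pM). IC50 comes from a four-parameter logistic fit of background-corrected percent-of-untreated values over 10 points.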

[5] = test system: MCF7 (MCF7/ATCC) cells; assay: In vitro cell viability (cell kill) assay, nuclear counts; type: cell-based, human; details: MCF7; Table 16
Description: as §1, §2

[6] = test system: T47D cells; assay: In vitro cell viability (cell kill) assay, CCK8; type: cell-based, human
Summary of the method: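 T47D cells grown overnight, then exposed for 3 days to anti-PRLR-DM1 ADCs (SMCC non-cleavable linker) or DM1-SMe at 500 nM to 5 pM.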

[7] = test system: NCI-N87/hPRLR cells; assay: In vitro cell viability (cell kill) assay; type: cell-based, human; details: NCI-N87/PRLR; Table 17
Description: PRLR-overexpressing cells, including HEK293, PC3, MCF7 and NCI-N87, were generated to assess the ability of anti-PRLR conjugated antibodies to reduce cell viability. For comparative purposes, PC3 and T47D cells with overexpressed ErbB2 were also generated, as well as an MCF7 cell line over-expressing both hPRLR and hErbB2. Briefly, Lipofectamine® 2000-mediated transfection methodology was utilized to generate HEK293 cells expressing human PRLR (HEK293/hPRLR) or human ErbB2 (HEK293/hErbB2). Lipofectamine LTX with Plus Reagent was used to generate PC3 cells expressing human PRLR (PC3/hPRLR) or human ErbB2 (PC3/hErbB2). […]
Next, the ability of anti-PRLR-DM1 antibody-drug conjugates (i.e., anti-PRLR antibodies conjugated to DM1 via a non-cleavable linker [SMCC]) to reduce cell viability was determined using in vitro cell based assays. […] The 293, PC3 and T47D cells were incubated with CCK8 (Dojindo, Rockville, Md.) for the final 1-3 hours and the absorbance at 450 nm (OD450) was determined on a Flexstation3 (Molecular Devices, Sunnyvale, Calif.). […] Images were acquired on the ImageXpress micro XL (Molecular Devices, Sunnyvale, Calif.) and nuclear counts were determined via Columbus image analysis software (Perkin Elmer, Shelton, Conn.). […] IC50 values were determined from a four-parameter logistic equation over a 10-point response curve (GraphPad Prism).

[8] = test system: HEK293/hErbB2 cells; assay: In vitro cell viability (cell kill) assay; type: cell-based, human; details: 293/ErbB2; Table 14
Description: as §1, §2
(§4) The potency of anti-PRLR conjugated antibodies compared with a similarly conjugated antibody to the co-expressed ErbB2 cell surface target was also assessed.

[9] = test system: MCF7/hPRLR/hErbB2 cells; assay: In vitro cell viability (cell kill) assay; type: cell-based, human; details: MCF/PRLR + ErbB2; Table 17
Description: as §1, §2, §4

[10] = test system: PC3/hErbB2 cells; assay: In vitro cell viability (cell kill) assay; type: cell-based, human; details: PC3/ErbB2; Table 15
Description: as §1, §2, §4

[11] = test system: MCF7/PRLR tumors; assay: MCF7/PRLR breast cancer xenograft, tumor size and tumor growth inhibition; type: in vivo, NCr nude mice; details: for Average Tumor Growth Inhibition (%) / Final Tumor size mm^3 (mean ± SEM): MCF7/PRLR tumors TRIAL #1, NCr Nude mice, Day 52
Summary of the method: (§5)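 MCF7/PRLR cells in mammary fat pad of female NCr nude mice, PC3/PRLR in flank of male SCID, T47D #11 in flank of female CB17 SCID, all with estrogen pellets.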

[12] = test system: PC3/PRLR tumors; assay: PC3/PRLR xenograft, tumor size and tumor growth inhibition; type: in vivo, SCID mice; details: for Average Tumor Growth Inhibition (%) / Final Tumor size mm^3 (mean ± SEM): PC3/PRLR tumors TRIAL #1, SCID mice, Day 63
Summary of the method: as §5

[13] = test system: SK-BR-3 cells; assay: In vitro cell viability (cell kill) assay; type: cell-based, human; details: Table 16

B1: H1H6953N-DM1 (conjugate)
VH: EVQLLESGGGLVQPGGTLRLSCAASGFTFSAYAMSWVRQAPGKGLEWVSSINVRAGDTYYADSVKGRFTISRDNSKNTLFLLMNSLRAEDTAAYYCAKARYSSNWGFDFWGQGTLVTVSS
VL: DIVMTQSPDSLTVSLGARTTINCQSSQTILHSSNNHNYLAWYQQKPGLPPKLLIYWSSTRESGVPDRFSGSGSGTDFTLTISSLQAEDVAIYYCQQYSNTPYTFGQGTKLEIN
- cell killing, non-cleavable DM1 ADCs versus cleavable MMAE ADCs [1]: nearly equivalent cell killing
- % Kill ([2]; Table 11, 3 days): 88%
- % Kill ([2]; Table 14): 92%
- % Kill ([3]; 293/PRLR, Table 14): 93%
- percent killing ([3]; 293/hPRLR cells): 93%
- % Kill [4]: 78%
- IC50 [4]: 110 nM
- % Kill [5]: 74%
- percent killing ([6]; T47D cells): 78%
- % Kill ([6]; T47D, Table 16): 78%
- % Kill [7]: 94%
- % Kill [8]: 98%
- IC50 [8]: 120 nM
- % Kill [9]: 77%
- % Kill [10]: 73%
- Average Tumor Growth Inhibition (%) ([11]; multi-dose 5 mg/kg): 120%
- Final Tumor size mm^3 (mean ± SEM) ([11]; multi-dose 5 mg/kg): 107 ± 45 mm^3
- Average Tumor Growth Inhibition (%) ([11]; multi-dose 15 mg/kg): 133%
- Final Tumor size mm^3 (mean ± SEM) ([11]; multi-dose 15 mg/kg): 0 ± 0 mm^3
- MCF7/PRLR tumor growth ([11]; first multi-dose trial, 5 and 15 mg/kg): potently inhibited MCF7/PRLR tumor growth
- Average Tumor Growth Inhibition (%) ([12]; multi-dose 5 mg/kg): 23%
- Final Tumor size mm^3 (mean ± SEM) ([12]; multi-dose 5 mg/kg): 1058 ± 138 mm^3
- Average Tumor Growth Inhibition (%) ([12]; multi-dose 15 mg/kg): 39%
- Final Tumor size mm^3 (mean ± SEM) ([12]; multi-dose 15 mg/kg): 892 ± 53 mm^3
- PC3/PRLR tumor growth ([12]; multi-dose, especially at 15 mg/kg): demonstrated inhibition of tumor growth
- % Kill [13]: 77%

— patent US10925971B2, “Methods of treating PRLR positive breast cancer” (Regeneron Pharmaceuticals, Inc., priority 2016, dated 2021)
